B1: FUNDC2 (parent)
chain: YIKVDWQRVEKDMKKAKEQLKIRK
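Note: lentivirally expressed fusions sorted by FACS into six bins by GFP to DsRed ratio, PSI derived from sequencing read proportions per bin multiplied by bin number.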

This data set covers variants of B1. Put plainly: protein stability index of a GFP-peptide fusion (GPS, HEK-293T) (PSI 1-6); higher = more stable. The conditions noted are these: c terminus: a fixed tail appended.
Turning to YIKVDWQRVEKDFKKAKEQLKIRK [M13F], the protein stability index was 1.79.

Regarding YIKVDWQRVEKDYKKAKEQLKIRK [M13Y], the protein stability index was 2.14.

Turning to YIKVDWQRVEKDDKKAKEQLKIRK [M13D], the protein stability index was 1.83.

Turning to YIKVDWQRVEKDCKKAKEQLKIRK [M13C], the protein stability index came to 1.73.

Regarding YIKVDWQRVEKDEKKAKEQLKIRK [M13E], the protein stability index was 1.87.

Turning to YIKVDWQRVEKDGKKAKEQLKIRK [M13G], the protein stability index was 2.32.

Take YIKVDWQRVEKDRKKAKEQLKIRK [M13R]: the protein stability index was 2.29.

Turning to YIKVDWQRVEKDVKKAKEQLKIRK [M13V], the protein stability index is 1.95.

Consider YIKVDWQRVEKDIKKAKEQLKIRK [M13I], for which the protein stability index came to 1.89.

Turning to YIKVDWQRVEKDMKKAKEQLKARK [I22A], the protein stability index stood at 1.21.

For YIKVDWQRVEKDMKKAKEQLKKRK [I22K], the protein stability index is 2.25.

As for YIKVDWQRVEKDMKKAKEQLKTRK [I22T], the protein stability index is 1.57.

On to YIKVDWQRVEKDMKKAKEQLKERK [I22E], for which the protein stability index turned out to be 2.65.

On to YIKVDWQRVEKDMKKAKEQLKQRK [I22Q], for which the protein stability index was determined as 2.51.

Regarding YIKVDWQRVEKDMKKAKEQLKHRK [I22H], the protein stability index turned out to be 1.88.

Regarding GIKVDWQRVEKDMKKAKEQLKIRK [Y1G], the protein stability index stood at 4.26.

For NIKVDWQRVEKDMKKAKEQLKIRK [Y1N], the protein stability index amounted to 3.7.

As for MIKVDWQRVEKDMKKAKEQLKIRK [Y1M], the protein stability index turned out to be 2.63.

Consider AIKVDWQRVEKDMKKAKEQLKIRK [Y1A], for which the protein stability index is 2.98.

With KIKVDWQRVEKDMKKAKEQLKIRK [Y1K], the protein stability index was 3.09.

For the variant DIKVDWQRVEKDMKKAKEQLKIRK [Y1D], the protein stability index turned out to be 4.17.

In the case of HIKVDWQRVEKDMKKAKEQLKIRK [Y1H], the protein stability index was determined as 3.34.

As to EIKVDWQRVEKDMKKAKEQLKIRK [Y1E], the protein stability index amounted to 4.15.

RIKVDWQRVEKDMKKAKEQLKIRK [Y1R]: the protein stability index is 3.6.

In the case of VIKVDWQRVEKDMKKAKEQLKIRK [Y1V], the protein stability index is 2.53.

For QIKVDWQRVEKDMKKAKEQLKIRK [Y1Q], the protein stability index stood at 3.49.

As to IIKVDWQRVEKDMKKAKEQLKIRK [Y1I], the protein stability index amounted to 2.21.

With TIKVDWQRVEKDMKKAKEQLKIRK [Y1T], the protein stability index is 3.07.

For YIWVDWQRVEKDMKKAKEQLKIRK [K3W], the protein stability index is 2.09.

In the case of YIYVDWQRVEKDMKKAKEQLKIRK [K3Y], the protein stability index came out at 3.14.

Turning to YIVVDWQRVEKDMKKAKEQLKIRK [K3V], the protein stability index was found to be 2.79.

Consider YISVDWQRVEKDMKKAKEQLKIRK [K3S], for which the protein stability index came out at 1.88.

Regarding YIDVDWQRVEKDMKKAKEQLKIRK [K3D], the protein stability index stood at 4.58.

As for YIFVDWQRVEKDMKKAKEQLKIRK [K3F], the protein stability index was 1.98.

For the variant YIKVDWQRVEKDMKKAKEQLVIRK [K21V], the protein stability index amounted to 2.19.

Turning to YIKVDWQRVEKDMKKAKEQLMIRK [K21M], the protein stability index came out at 1.96.

With YIKVDWQRVEKDMKKAKEQLRIRK [K21R], the protein stability index was found to be 2.

As for YIKVDWQRVEKDMKKAKEQLAIRK [K21A], the protein stability index stood at 1.87.

With YIKVDWQRVEKDMKKAKEQLCIRK [K21C], the protein stability index was 2.06.

For the variant YIKVDWQRVEKDMKKAKEQLIIRK [K21I], the protein stability index came to 1.68.

Turning to YIKVDWQRVEKDMKKAKEQLTIRK [K21T], the protein stability index came to 1.87.

Regarding YIKVDWQRVEKDMKKAKEQLDIRK [K21D], the protein stability index amounted to 1.86.

As to YIKVDWQRVEKDMKKAKEQLSIRK [K21S], the protein stability index stood at 2.22.

YIKVDWQRVEKDMRKAKEQLKIRK [K14R]: the protein stability index was determined as 2.12.

Consider YIKVDWQRVEKDMWKAKEQLKIRK [K14W], for which the protein stability index is 2.1.

On to YIKVDWQRVEKDMIKAKEQLKIRK [K14I], for which the protein stability index stood at 1.67.

Take YIKVDWQRVEKDMPKAKEQLKIRK [K14P]: the protein stability index turned out to be 1.86.

Regarding YIKVDWQRVEKDMFKAKEQLKIRK [K14F], the protein stability index was found to be 1.51.

On to YIKVDWQRVEKDMAKAKEQLKIRK [K14A], for which the protein stability index was found to be 1.6.

Consider YIKVDWQRVEKDMDKAKEQLKIRK [K14D], for which the protein stability index worked out at 1.65.

As to YIKVDWQRVEKDMCKAKEQLKIRK [K14C], the protein stability index came out at 1.83.

Regarding YIKQDWQRVEKDMKKAKEQLKIRK [V4Q], the protein stability index turned out to be 1.83.

For YIKGDWQRVEKDMKKAKEQLKIRK [V4G], the protein stability index is 2.36.

As to YIKRDWQRVEKDMKKAKEQLKIRK [V4R], the protein stability index came to 2.74.

In the case of YIKMDWQRVEKDMKKAKEQLKIRK [V4M], the protein stability index is 1.45.

In the case of YIKFDWQRVEKDMKKAKEQLKIRK [V4F], the protein stability index worked out at 1.73.

For YIKKDWQRVEKDMKKAKEQLKIRK [V4K], the protein stability index is 1.92.

As for YIKIDWQRVEKDMKKAKEQLKIRK [V4I], the protein stability index was found to be 2.53.

In the case of YIKVDWQRVEKDMKKAKESLKIRK [Q19S], the protein stability index is 2.04.

On to YIKVDWQRVEKDMKKAKEKLKIRK [Q19K], for which the protein stability index amounted to 1.32.

Regarding YIKVDWQRVEKDMKKAKEWLKIRK [Q19W], the protein stability index is 1.79.

YIKVDWQRVEKDMKKAKEALKIRK [Q19A]: the protein stability index worked out at 1.86.

For the variant YIKVDWQRVEKDMKKAKEPLKIRK [Q19P], the protein stability index stood at 1.82.

Consider YIKVDWQRVEKDMKKAKERLKIRK [Q19R], for which the protein stability index is 1.33.

For the variant YIKVDWQRVEKDMKKAKEMLKIRK [Q19M], the protein stability index stood at 2.57.

On to YIKVDWTRVEKDMKKAKEQLKIRK [Q7T], for which the protein stability index turned out to be 1.73.

For YIKVDWHRVEKDMKKAKEQLKIRK [Q7H], the protein stability index was 1.45.

In the case of YIKVDWKRVEKDMKKAKEQLKIRK [Q7K], the protein stability index amounted to 1.95.

Consider YIKVDWLRVEKDMKKAKEQLKIRK [Q7L], for which the protein stability index turned out to be 2.01.

Turning to YIKVDWARVEKDMKKAKEQLKIRK [Q7A], the protein stability index was found to be 1.79.

Turning to YIKVDWGRVEKDMKKAKEQLKIRK [Q7G], the protein stability index turned out to be 2.9.

For the variant YIKVDWIRVEKDMKKAKEQLKIRK [Q7I], the protein stability index is 2.7.

With YIKVDWQRHEKDMKKAKEQLKIRK [V9H], the protein stability index was 1.61.

For the variant YIKVDWQRIEKDMKKAKEQLKIRK [V9I], the protein stability index is 2.28.

As for YIKVDWQRREKDMKKAKEQLKIRK [V9R], the protein stability index came out at 1.73.

For the variant YIKVDWQRCEKDMKKAKEQLKIRK [V9C], the protein stability index came to 1.94.

As to YIKVDWQRKEKDMKKAKEQLKIRK [V9K], the protein stability index came to 2.45.

As for YIKVDWQRDEKDMKKAKEQLKIRK [V9D], the protein stability index turned out to be 2.62.

In the case of YIKVDWQRFEKDMKKAKEQLKIRK [V9F], the protein stability index was determined as 1.54.

As to YIKVNWQRVEKDMKKAKEQLKIRK [D5N], the protein stability index came to 2.19.

Turning to YIKVYWQRVEKDMKKAKEQLKIRK [D5Y], the protein stability index came to 3.3.

Consider YIKVGWQRVEKDMKKAKEQLKIRK [D5G], for which the protein stability index was determined as 2.43.

On to YIKVRWQRVEKDMKKAKEQLKIRK [D5R], for which the protein stability index came to 1.78.

Regarding YIKVWWQRVEKDMKKAKEQLKIRK [D5W], the protein stability index worked out at 3.34.

Turning to YIKVKWQRVEKDMKKAKEQLKIRK [D5K], the protein stability index amounted to 2.1.

With YIKVLWQRVEKDMKKAKEQLKIRK [D5L], the protein stability index came to 2.48.

On to YIKVAWQRVEKDMKKAKEQLKIRK [D5A], for which the protein stability index is 3.55.

For the variant YIKVDWQRVEKDMKKAKLQLKIRK [E18L], the protein stability index was 2.12.

YIKVDWQRVEKDMKKAKIQLKIRK [E18I]: the protein stability index amounted to 2.41.

In the case of YIKVDWQRVEKDMKKAKAQLKIRK [E18A], the protein stability index was found to be 1.97.

With YIKVDWQRVEKDMKKAKRQLKIRK [E18R], the protein stability index came out at 1.57.

As to YIKVDWQRVEKDMKKAKPQLKIRK [E18P], the protein stability index came out at 2.48.

Regarding YIKVDWQRVEKDMKKAKFQLKIRK [E18F], the protein stability index amounted to 1.65.

On to YIKVDWQRVEKDMKKAKVQLKIRK [E18V], for which the protein stability index is 1.69.

(Values after the supplement of paper PMC10567573.)
